Laboratory results published in patent publication CN114031685A (INST MILITARY MEDICINE ACADEMY MILITARY SCIENCES PLA, dated 2022).

Tests used:
[1] = molecular target: SARS-CoV-2 WT S-ECD蛋白 (新冠野生株, Genbank NC_045512.2) (SARS-CoV-2, UniProt P0DTC2 14-1213)
[2] = molecular target: Alpha株 S蛋白 (on pseudovirus) (SARS-CoV-2 Alpha株 (B.1.1.7)); assay: cell-based or functional assay
[3] = molecular target: Beta株 S蛋白 (on pseudovirus / live virus) (SARS-CoV-2 Beta株 (B.1.351)); assay: cell-based or functional assay
[4] = molecular target: Gamma株 S蛋白 (on pseudovirus) (SARS-CoV-2 Gamma株 (P.1)); assay: cell-based or functional assay
[5] = molecular target: Delta株 S蛋白 (on pseudovirus / live virus) (SARS-CoV-2 Delta株 (B.1.617.2)); assay: cell-based or functional assay
[6] = molecular target: Omicron株 S蛋白 (on pseudovirus) (SARS-CoV-2 Omicron株 (B.1.1.529)); assay: cell-based or functional assay

B1: 抗SARS-CoV-2全人源单克隆抗体ZW2G10 (antibody, V domains shown)
VH: EVQLVESGGGLVQPGRSLRLSCAASGFTFDDYAMHWVRQAPGKGLEWVSGITWNSGTIGYADSVKGRFIISRDNAKNSLHLQMNSLRVEDTALYYCAKDNSDYSGYYWELENYGMDVWGQGTTVTVSS
VL: QSVLTQPPSVSGAPGQRVTISCTGSSSNIGAGYDVHWYQQLPGTAPKLLIYDNNNRPSGVPDRFSGSKSGTSASLAITGLQAEDEADYYCQSFDSSLSGVVFGGGTRLTVLR
notes: also called 单抗ZW2G10
- Kd [1]: 0.243 nM
- 假病毒中和 EC50 [2]: 14.1 ng/mL
- 假病毒中和 EC50 [3]: 18.4 ng/mL
- 真病毒中和 EC50 (Vero E6) [3]: 1.42 µg/mL
- 假病毒中和 EC50 [4]: 15.6 ng/mL
- 假病毒中和 EC50 [5]: 36.2 ng/mL
- 真病毒中和 EC50 (Vero E6) [5]: 0.71 µg/mL
- 假病毒中和 EC50 [6]: 19.3 ng/mL
